Assay results reported in FireProtDB (doi:10.1021/bi0268697).
Where “and” joins values, the source holds several entries; their conditions need not be identical. Equal entries are not always repeated.

B1: Barstar, P11540 (parent)
chain: MKKAVINGEQIRSISDLHQTLKKELALPEYYGENLDALWDCLTGWVEYPLVLEWRQFEQSKQLTENGAESVLQVFREAKAEGCDITIILS

Variants of: B1
Conditions: Bacillus amyloliquefaciens; pH 8; 25 °C; Urea; CD; Tris 20 mM; reversible: yes; structure 1BTA; whole UniProt chain shown

In the case of W39F W45F C41A C83A A26C, the “denaturant midpoint (higher = more stable)” value (from here on “denaturant midpoint”) is reported as 3.5 M and 3.4 M and the unfolding free energy is reported as 4.4 kcal/mol and 4.3 kcal/mol.

In the case of W39F W45F C83A, the “denaturant midpoint” value is reported as 3.3 M and 3.7 M and the unfolding free energy is reported as 4.2 kcal/mol and 4.7 kcal/mol.

In the case of W39F W45F C41A C83A L63C, the “denaturant midpoint” value is reported as 3.3 M and the unfolding free energy is reported as 4 kcal/mol.

For W39F W45F S13T C41A, the “denaturant midpoint” value was 3.4 M and 3.5 M and the unfolding free energy was 4.5 kcal/mol.
